Experimental data reported in PMC12102759.

B1: PEX5 peptide 238-253 (Peroxisomal targeting signal 1 receptor), 16-mer library wild type / PEX14 Pex14 (PEX14 PEX14, residues 16-84) (parent)
chain 1: AQAEQWAAEFIQQQGT
chain 2: TPGSENVLPREPLIATAVKFLQNSRVRQSPLATRRAFLKKKGLTDEEIDMAFQQSGTAADEPSSLGPAT
B2: PAIP1 peptide 126-141 (Polyadenylate-binding protein-interacting protein 1), 16-mer library wild type / PABPC1 PABC (PABPC1 PABC domain, residues 544-623) (parent)
chain 1: SKLSVNAPEFYPSGYS
chain 2: PLTASMLASAPPQEQKQMLGERLFPLIQAMHPTLAGKITGMLLEIDNSELLHMLESPESLRSKVDEAVAVLQAHQAKEAA

Variants of: B1
Assay: proteomic peptide phage display deep mutational scan (ProP-PD DMS): M13 P8 16-mer library selected against immobilised GST-tagged bait for four days (rounds), NGS of the eluted pools per day and pseudo-replica
Settings: with PEX14 Pex14 (PEX14 PEX14, residues 16-84); bait immobilised on MaxiSorp plates (10 µg), library pre-cleared on GST, 2 h binding at 4 °C, five washes; one round per day, days 1-4; value from days 2 and 3; keep out of graded; scale: average fractional NGS count over selection days 2 and 3

| screen value | Variant |
| --- | --- |
| 0.00166 | chain 1 AQAEQWGAEFIQQQGT |
| 0 | chain 1 AQAEQWVAEFIQQQGT |
| 0.000159 | chain 1 AQAEQWAAGFIQQQGT |
| 0 | chain 1 AQAEQWAAIFIQQQGT |
| 0.0023 | chain 1 AQAEQWAAHFIQQQGT |
| 0.000716 | chain 1 AQAEQWAAQFIQQQGT |
| 0.000195 | chain 1 AQAEAWAAEFIQQQGT |
| 0 | chain 1 AQAEWWAAEFIQQQGT |
| 7.71e-05 | chain 1 AQAEIWAAEFIQQQGT |
| 0 | chain 1 AQAEKWAAEFIQQQGT |
| 0 | chain 1 AQAEEWAAEFIQQQGT |
| 0.00108 | chain 1 AQAEQWAAEFHQQQGT |
| 0.000289 | chain 1 AQAEQWAAEFGQQQGT |
| 0 | chain 1 AQAEQWAAEFWQQQGT |
| 0.000576 | chain 1 AQAEQWAAEFTQQQGT |
| 0.000739 | chain 1 AQAEQWAAEFFQQQGT |
| 0.00134 | chain 1 AQAEQWAAEFQQQQGT |
| 0.000758 | chain 1 ASAEQWAAEFIQQQGT |
| 0 | chain 1 AAAEQWAAEFIQQQGT |
| 7.71e-05 | chain 1 ARAEQWAAEFIQQQGT |
| 0.000898 | chain 1 AQAEQFAAEFIQQQGT |
| 0.000318 | chain 1 AQAIQWAAEFIQQQGT |
| 0.000893 | chain 1 AQAMQWAAEFIQQQGT |

| screen value | Variant |
| --- | --- |
| 0.000168 | chain 1 AQAYQWAAEFIQQQGT |
| 0.000327 | chain 1 AQAEQWAAEFIQQQDT |
| 0 | chain 1 AQAEQWAAEFIQQQIT |
| 0 | chain 1 AQAEQWAAEFIQQQKT |
| 0.000135 | chain 1 AQAEQWAAEFIQQQVT |
| 0.000288 | chain 1 AQAEQWAAEFIQQQRT |
| 0 | chain 1 AQAEQWAAEFIQQQYT |
| 0.000212 | chain 1 AQAEQWAAEFIQQQST |
| 0.000592 | chain 1 AQAEQWAAEFITQQGT |
| 0.000188 | chain 1 AQAEQWAAEFIVQQGT |
| 0.000341 | chain 1 AQAEQWAAEFIKQQGT |
| 0.000699 | chain 1 AQAEQWAAEFIPQQGT |
| 0 | chain 1 AQAEQWAAEFIEQQGT |
| 0 | chain 1 AQAEQWAAEFIAQQGT |
| 0.000368 | chain 1 AQAEQWAAEFIGQQGT |
| 0.000355 | chain 1 AQAEQWAAEFIWQQGT |
| 0.000406 | chain 1 AQAEQWAAEFILQQGT |
| 0.000791 | chain 1 AQGEQWAAEFIQQQGT |
| 0.000153 | chain 1 AQPEQWAAEFIQQQGT |
| 0.000376 | chain 1 AQSEQWAAEFIQQQGT |
| 0.00272 | chain 1 AQAEQWAGEFIQQQGT |
| 0.000444 | chain 1 AQAEQWASEFIQQQGT |
| 0.000559 | chain 1 AQAEQWAREFIQQQGT |

| screen value | Variant |
| --- | --- |
| 0 | chain 1 AQAEQWADEFIQQQGT |
| 0.00138 | chain 1 AQAEQWAVEFIQQQGT |
| 0 | chain 1 AQAEQWAPEFIQQQGT |
| 0.000335 | chain 1 AQAEQWAAEFIQTQGT |
| 0 | chain 1 AQAEQWAAEFIQKQGT |
| 0.000125 | chain 1 AQAEQWAAEFIQYQGT |
| 0.00111 | chain 1 AQAEQWAAEFIQLQGT |
| 0.000175 | chain 1 AQAEQWAAESIQQQGT |
| 0.000488 | chain 1 AQAEQWAAEYIQQQGT |
| 0.000137 | chain 1 AQAEQWAAEIIQQQGT |
| 0.014 | chain 1 AQAEQWAAEHIQQQGT |
| 0 | chain 1 AQAEQWAAEFIQQEGT |
| 0.000797 | chain 1 AQAEQWAAEFIQQWGT |
| 0.00214 | chain 1 AQAEQWAAEFIQQGGT |
| 0.0013 | chain 1 AQAEQWAAEFIQQRGT |
| 0.000266 | chain 1 AQAEQWAAEFIQQVGT |
| 0.000732 | chain 1 AQAEQWAAEFIQQHGT |
| 0.000382 | chain 1 AQAEQWAAEFIQQQGP |
| 0 | chain 1 AQAEQWAAEFIQQQGG |
| 0.00206 | chain 1 AQAEQWAAEFIQQQGV |
| 0.00068 | chain 1 AQAEQWAAEFIQQQGQ |
| 0.00132 | chain 1 AQAEQWAAEFIQQQGH |
| 0.000223 | chain 1 AQAEQWAAEFIQQQGS |

Variants of: B2
Assay: as above
Settings: with PABPC1 PABC (PABPC1 PABC domain, residues 544-623); bait immobilised on MaxiSorp plates (10 µg), library pre-cleared on GST, 2 h binding at 4 °C, five washes; one round per day, days 1-4; value from days 2 and 3; keep out of graded; scale: average fractional NGS count over selection days 2 and 3

| screen value | Variant |
| --- | --- |
| 0.00185 | chain 1 LKLSVNAPEFYPSGYS |
| 0.000154 | chain 1 NKLSVNAPEFYPSGYS |
| 0.00037 | chain 1 KKLSVNAPEFYPSGYS |
| 0.000406 | chain 1 QKLSVNAPEFYPSGYS |
| 7.1e-05 | chain 1 RKLSVNAPEFYPSGYS |
| 0.0011 | chain 1 MKLSVNAPEFYPSGYS |
| 0.000196 | chain 1 VKLSVNAPEFYPSGYS |
| 0.0012 | chain 1 AKLSVNAPEFYPSGYS |
| 0.000196 | chain 1 PKLSVNAPEFYPSGYS |
| 0.000105 | chain 1 SKLSVNAAEFYPSGYS |
| 0.000241 | chain 1 SKLSVNASEFYPSGYS |
| 0.0021 | chain 1 SKLSVNAYEFYPSGYS |
| 0.000406 | chain 1 SKLSVNADEFYPSGYS |
| 0.00064 | chain 1 SKLSVNAVEFYPSGYS |
| 0.000696 | chain 1 SKLSVNAGEFYPSGYS |
| 8.32e-05 | chain 1 SKLSVNAKEFYPSGYS |
| 0.000383 | chain 1 SKLSVNAQEFYPSGYS |
| 0.000643 | chain 1 SKLSVNALEFYPSGYS |
| 0.00039 | chain 1 SKLSVNAMEFYPSGYS |
| 0.000635 | chain 1 SKLSVNAREFYPSGYS |
| 0.00116 | chain 1 SKLSVNAPEFYPSPYS |
| 0.000153 | chain 1 SKLSVNAPEFYPSKYS |
| 0.00125 | chain 1 SKLSVNAPEFYPSYYS |
| 0.00104 | chain 1 SKLSVNAPEFYPSAYS |
| 0.000195 | chain 1 SKLSVNAPEFYPSIYS |
